Reference: US7217525 (Johns Hopkins, dated 2007)

Target: T1, Narp (recombinant, expressed in transfected HEK-293 cells) (Rattus norvegicus (Rat), UniProt P97738 15-432)
T1 sequence: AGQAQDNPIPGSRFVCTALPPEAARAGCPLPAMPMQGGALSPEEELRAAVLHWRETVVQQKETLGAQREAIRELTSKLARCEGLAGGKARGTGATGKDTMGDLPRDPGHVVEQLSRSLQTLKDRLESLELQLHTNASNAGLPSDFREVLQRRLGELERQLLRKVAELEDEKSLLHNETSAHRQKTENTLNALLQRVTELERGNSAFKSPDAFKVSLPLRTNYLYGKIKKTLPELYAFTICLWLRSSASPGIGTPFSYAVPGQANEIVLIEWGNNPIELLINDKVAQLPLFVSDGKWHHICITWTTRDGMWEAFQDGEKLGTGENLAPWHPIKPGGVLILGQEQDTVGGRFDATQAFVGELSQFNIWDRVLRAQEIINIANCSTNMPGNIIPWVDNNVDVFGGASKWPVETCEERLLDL
Test: cell-based or functional assay

B1: C-terminal myc-tagged version of Narp (designated myc-Narp) (ligand, not shown: small tags and cut ends)
chain: T1 sequence
increase in intercellular myc-Narp*GluR1 co-clusters when untagged Narp is co-expressed with GluR1 in the apposing 293 cell: 2 fold
